“Also recorded” adds a separate entry of the source.
B1: GST-Siah2: GST fusion of Seven in absentia homolog 2, RING E3 ligase (protein)
chain: MSRPSSTGPSANKPCSKQPPPQPQHTPSPAAPPAAATISAAGPGSSAVPAAAAVISGPGGGGGAGPVSPQHHELTSLFECPVCFDYVLPPILQCQAGHLVCNQCRQKLSCCPTCRGALTPSIRNLAMEKVASAVLFPCKYATTGCSLTLHHTEKPEHEDICEYRPYSCPCPGASCKWQGSLEAVMSHLMHAHKSITTLQGEDIVFLATDINLPGAVDWVMMQSCFGHHFMLVLEKQEKYEGHQQFFAIVLLIGTRKQAENFAYRLELNGNRRRLTWEATPRSIHDGVAAAIMNSDCLVFDTAIAHLFADNGNLGINVTISTCCP
modifications: left off: a dimerising Fc or GST
notes: GST fusion of Seven in absentia homolog 2, RING E3 ligase
B2: GST-Murf1: GST fusion of Muscle-specific RING finger protein 1, RING E3 ligase (protein)
chain: MDYKSSLIQDGNPMENLEKQLICPICLEMFTKPVVILPCQHNLCRKCANDIFQAANPYWTSRGSSVSMSGGRFRCPTCRHEVIMDRHGVYGLQRNLLVENIIDIYKQECSSRPLQKGSHPMCKEHEDEKINIYCLTCEVPTCSMCKVFGIHKACEVAPLQSVFQGQKTELNNCISMLVAGNDRVQTIITQLEDSRRVTKENSHQVKEELSQKFDTLYAILDEKKSELLQRITQEQEKKLSFIEALIQQYQEQLDKSTKLVETAIQSLDEPGGATFLLTAKQLIKSIVEASKGCQLGKTEQGFENMDFFTLDLEHIADALRAIDFGTDEEEEEFIEEEDQEEEESTEGKEEGHQ
modifications: left off: a dimerising Fc or GST
notes: GST fusion of Muscle-specific RING finger protein 1, RING E3 ligase
B3: GST-parkin: GST fusion of parkin, RING class E3 ligase (protein)
chain: MIVFVRFNSSHGFPVEVDSDTSIFQLKEVVAKRQGVPADQLRVIFAGKELRNDWTVQNCDLDQQSIVHIVQRPWRKGQEMNATGGDDPRNAAGGCEREPQSLTRVDLSSSVLPGDSVGLAVILHTDSRKDSPPAGSPAGRSIYNSFYVYCKGPCQRVQPGKLRVQCSTCRQATLTLTQGPSCWDDVLIPNRMSGECQSPHCPGTSAEFFFKCGAHPTSDKETSVALHLIATNSRNITCITCTDVRSPVLVFQCNSRHVICLDCFHLYCVTRLNDRQFVHDPQLGYSLPCVAGCPNSLIKELHHFRILGEEQYNRYQQYGAEECVLQMGGVLCPRPGCGAGLLPEPDQRKVTCEGGNGLGCGFAFCRECKEAYHEGECSAVFEASGTTTQAYRVDERAAEQARWEAASKETIKKTTKPCPRCHVPVEKNGGCMHMKCPQPQCRLEWCWNCGCEWNRVCMGDHWFDV
modifications: left off: a dimerising Fc or GST
notes: GST fusion of parkin, RING class E3 ligase
B4: GST-Nedd4: GST fusion of Nedd4, HECT E3 ligase (protein)
chain: MATCAVEVFGLLEDEENSRIVRVRVIAGIGLAKKDILGASDPYVRVTLYDPMNGVLTSVQTKTIKKSLNPKWNEEILFRVHPQQHRLLFEVFDENRLTRDDFLGQVDVPLYPLPTENPRLERPYTFKDFVLHPRSHKSRVKGYLRLKMTYLPKTSGSEDDNAEQAEELEPGWVVLDQPDAACHLQQQQEPSPLPPGWEERQDILGRTYYVNHESRRTQWKRPTPQDNLTDAENGNIQLQAQRAFTTRRQISEETESVDNRESSENWEIIREDEATMYSNQAFPSPPPSSNLDVPTHLAEELNARLTIFGNSAVSQPASSSNHSSRRGSLQAYTFEEQPTLPVLLPTSSGLPPGWEEKQDERGRSYYVDHNSRTTTWTKPTVQATVETSQLTSSQSSAGPQSQASTSDSGQQVTQPSEIEQGFLPKGWEVRHAPNGRPFFIDHNTKTTTWEDPRLKIPAHLRGKTSLDTSNDLGPLPPGWEERTHTDGRIFYINHNIKRTQWEDPRLENVAITGPAVPYSRDYKRKYEFFRRKLKKQNDIPNKFEMKLRRATVLEDSYRRIMGVKRADFLKARLWIEFDGEKGLDYGGVAREWFFLISKEMFNPYYGLFEYSATDNYTLQINPNSGLCNEDHLSYFKFIGRVAGMAVYHGKLLDGFFIRPFYKMMLHKPITLHDMESVDSEYYNSLRWILENDPTELDLRFIIDEELFGQTHQHELKNGGSEIVVTNKNKKEYIYLVIQWRFVNRIQKQMAAFKEGFFELIPQDLIKIFDENELELLMCGLGDVDVNDWREHTKYKNGYSANHQVIQWFWKAVLMMDSEKRIRLLQFVTGTSRVPMNGFAELYGSNGPQSFTVEQWGTPEKLPRAHTCFNRLDLPPYESFEELWDKLQMAIENTQGFDGVD
modifications: left off: a dimerising Fc or GST
notes: GST fusion of Nedd4, HECT E3 ligase
B5: His-CHIP: His-tagged carboxyl terminus of Hsp70-interacting protein, U-box E3 ligase (protein)
chain: MKGKEEKEGGARLGAGGGSPEKSPSAQELKEQGNRLFVGRKYPEAAACYGRAITRNPLVAVYYTNRALCYLKMQQHEQALADCRRALELDGQSVKAHFFLGQCQLEMESYDEAIANLQRAYSLAKEQRLNFGDDIPSALRIAKKKRWNSIEERRIHQESELHSYLSRLIAAERERELEECQRNHEGDEDDSHVRAQQACIEAKHDKYMADMDELFSQVDEKRKKRDIPDYLCGKISFELMREPCITPSGITYDRKDIEEHLQRVGHFDPVTRSPLTQEQLIPNLAMKEVIDAFISENGWVEDY
modifications: left off: small tags and cut ends

Legend:
[1] = test system: S5a; experiment: thermal denaturation of E3 ligases (S5a ubiquitination after pre-incubation); format: biochemical; details: for Thermal Denaturation Temperature (temperature at which approximately 50% of activity was lost): E3 pre-incubated 90 minutes at 4° C. to 60° C., then S5a ubiquitination 60 minutes at 37° C.
Method: To characterize the thermal denaturation properties E3 ligases, the E3 was pre-incubated for 90 minutes at a temperature ranging from 4° C. to 60° C. (Mdm2 and Nedd4 at 4, 37, 45, 50 and 60° C.; Murf1 at 4, 37, 50, 60, 70 and 80° C.; E6AP at 37, 39, 41, 43, and 45° C. At 90 minutes, a pre-mix was made containing 50 nM E1, 1 mM Mg-ATP, 5 μM UbcH7 (UbcH5a for Mdm2 and Murf1), 200 nM ubiquitin and 200 nM S5a. The pre-mix was added to 0.2 mg/mL of E3 ligase and incubated at 37° C. for 60 minutes. Samples were run on SDS-PAGE and assessed by Western blotting using monoclonal antibody to S5a (BioMol).

[2] = test system: S5a; experiment: ubiquitination assay of E3 ligases using S5a as the substrate; format: biochemical; details: 0.2 mg/mL E3, 200 nM S5a, 1 hour at 37° C., Western blot
Method: For each E3 ligase, a ubiquitination assay using S5a as the substrate was carried out. Briefly, the ubiquitination reaction contained 50 nM E1, 1 mM MgATP, 5 μM UbcH7, 0.2 mg/mL E3, 200 nM ubiquitin, and 200 nM S5a. Ubiquitination reactions were incubated for 1 hour at 37° C. and samples were taken at time 0, 30′ and 60′. Samples were run on SDS-PAGE, transferred to immobilon and Western blotted using monoclonal antibody to S5a (BioMol).

Molecule	Thermal Denaturation Temperature (temperature at which approximately 50% of activity was lost) [1] [°C]	Thermal Denaturation Temperature (temperature at which approximately 50% of activity was lost) ([1]; listed as E6AP) [°C]	Ubiquitinated S5a? [2]	Ubiquitinated S5a? ([2]; listed as Siah2)	Thermal Denaturation Temperature (temperature at which approximately 50% of activity was lost) ([1]; listed as Murf1) [°C]	S5a ubiquitination activity after thermal pre-incubation ([1]; E3 pre-incubated 90 minutes at 4, 37, 45, 50 and 60° C.)	Ubiquitinated S5a? ([2]; listed as CHIP)
GST-E6AP: GST fusion of Human papillomavirus E6-associated protein, HECT E3 ligase	41	41	Yes	–	–	–	–
B1	–	–	Yes (low)	very low activity	–	–	–
B2	60	–	Yes	–	60	–	–
B3	49	–	Yes	–	–	–	–
B4	37	–	Yes	–	–	did not show any activity when pre-incubated at temperatures higher than 4 °C; also recorded: lose activity following pre-incubation at any temperature except 4 °C	–
B5	–	–	Yes	–	–	–	reasonable activity

Source: patent publication US7790365B2, “Assays for modulators of parkin activity using S5a as a parkin substrate” (Elan Pharma International Limited, priority 2007, dated 2010)
